{"source": "patent US20260184780A1", "about": "(MONASH UNIVERSITY, published 2026)", "binders": {"B1": {"name": "5F.RF3.A7b.C9 (antibody, IgG2b, V domains shown)", "VH": "QVQLVQSGAEVKKPGASVKVSCKTSAYTFTNYGISWVRQAPGQGLEWMGWISPYNGNTNYAQKLQGRVTMTTDTSTRTAYMELRSLRSDDTAVYYCAREYNRSSRGRYYYYGMDVWGQGTTVTVSS", "VL": "EIVLTQSPGTLSLSPGERATLSCRASQSVSSNYLAWYQKKPGQAPRLLISGASSRATGIPDRFSGSGSGTDFTLTISRLEPEDFAVYYCQQYGSSPWTFGQGTKVEIK", "notes": "also called MoB5F-RF3.A7b.C9; MoB5F F3"}, "B2": {"name": "5A.RC3.F10b.H4b (antibody, IgG2a, V domains shown)", "VH": "QVQLVESGGGVVQPGRSLRLSCAASGFTLSNYGMHWVRQAPGKGLEWVSVIWYDGSNKHYADSVKGRFTISRDNSKNTLYLQMNSLRAEDTAVYYCARESIVEVLPPFDYWGQGTLVTVSS", "VL": "KIVLTQSPGTLSLSPGERVTLSCRASQRVRNNYLAWFQQKPGQAPRLFIYGASSRATGIPDRFSGSGSGTDFIFTISRLEPEDFAVYYCQQYGNSYTFGQGTKLEIK", "notes": "also called MoB5ARC3; MoB5A-RC3.F10b.H4b"}}, "key": {"[1]": {"molecular_target": "T1, human PAR4 on isolated human platelets (human, UniProt Q96RI0 18-385)", "T1 construct": "Endogenous receptor of donor platelets; donors carry Ala120 and/or Thr120; also called PAR4 on human platelets", "T1 sequence": "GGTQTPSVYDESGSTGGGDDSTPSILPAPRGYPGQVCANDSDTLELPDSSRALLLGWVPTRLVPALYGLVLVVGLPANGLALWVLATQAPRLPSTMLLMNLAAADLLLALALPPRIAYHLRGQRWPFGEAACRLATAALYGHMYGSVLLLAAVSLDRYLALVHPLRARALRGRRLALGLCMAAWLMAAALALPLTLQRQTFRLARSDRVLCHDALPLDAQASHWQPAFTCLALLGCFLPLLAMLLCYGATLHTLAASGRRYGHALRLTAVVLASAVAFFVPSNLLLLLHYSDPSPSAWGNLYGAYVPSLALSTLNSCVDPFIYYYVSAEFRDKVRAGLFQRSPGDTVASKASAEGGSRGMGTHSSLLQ", "assay": "flow cytometry on isolated human platelets"}, "[2]": {"molecular_target": "T1, human PAR4 on isolated human platelets", "assay": "cell-based or functional assay"}, "hPAR4 1-9 peptide": {"molecular_target": "T2, hPAR4 1-9 peptide (human)", "T2 construct": "Range counted on the hPAR4 immunising peptide; also called peptide 1-9", "T2 peptide": "GDDSTPSIL", "assay": "ELISA, peptide coated on the plate, purified mAb, background subtracted", "experimental": "(§1) Briefly the peptides were coated onto a Nunc maxisorp ELISA plate at 10 ug/ml overnight in coating buffer (0.1 M sodium carbonate pH8.0). Purified mAbs diluted in PBS were used in place of supernatant."}, "hPAR4 (naked) peptide [3]": {"molecular_target": "T3, hPAR4 (naked) peptide (human)", "T3 construct": "also called native PAR4 peptide; hPAR4 peptide", "T3 peptide": "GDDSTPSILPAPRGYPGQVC", "assay": "ELISA, purified mAb on hPAR4 peptide coated wells, anti-mouse Fc-AP, absorbance 405 nm", "experimental": "The experiment was completed with purified mAbs diluted in PBS instead of hybridoma supernatants.\nThe reactivity of seven purified anti-hPAR4 mAbs was analysed by ELISA (see Table 4)."}, "hPAR2 (Biotin) peptide [4]": {"molecular_target": "T4, hPAR2 (Biotin) peptide (human, not fully specified; biotin on the C-terminal lysine (SKB))", "T4 construct": "also called PAR2 peptide; PAR2 screening peptide", "T4 peptide": "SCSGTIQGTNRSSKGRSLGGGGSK", "assay": "ELISA, biotinylated peptide on streptavidin plate, absorbance 405 nm", "experimental": "(§2) Biotinylated peptides (hPAR1-4) were diluted in Wash buffer and allowed to bind to the blocked Streptavidin coated wells at 10 ug/ml (100 ul per well) for 1 hour at room temperature with gentle mixing. Wells were washed 3 times as above and purified anti-hPAR4 mAbs prepared at 10 ug/ml in Wash buffer were allowed to bind (100 ul/well) for 1 hour at room temperature with gentle mixing. The plate was washed 3 times as above and anti-mouse Fc conjugated to Alkaline phosphatase (AP) at 0.3 ug/ml (100 ul) was added to the wells for 1 hour as above. Wells were washed 3 times as above and developed with Alkaline Phosphatase substrate as described for the screening supernatant ELISA.\n(§3) To further characterise the purified anti-hPAR4 mAb's the specificity of the mAbs to hPAR1, hPAR2, hPAR3 and hPAR4 biotinylated peptides was performed."}, "hPAR3 (Biotin) peptide [5]": {"molecular_target": "T5, hPAR3 (Biotin) peptide (human, biotin on the C-terminal lysine (SKB))", "T5 construct": "also called PAR3 peptide; PAR3 screening peptide", "T5 peptide": "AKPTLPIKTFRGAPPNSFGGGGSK", "assay": "ELISA, biotinylated peptide on streptavidin plate, absorbance 405 nm", "experimental": "as §2, §3"}, "hPAR1 (Biotin) peptide [6]": {"molecular_target": "T6, hPAR1 (Biotin) peptide (human, not fully specified; biotin on the C-terminal lysine (SKB))", "T6 construct": "also called PAR1 peptide; PAR1 screening peptide", "T6 peptide": "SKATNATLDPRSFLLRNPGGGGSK", "assay": "ELISA, biotinylated peptide on streptavidin plate, absorbance 405 nm", "experimental": "as §2, §3"}, "hPAR2 (Biotin) peptide [7]": {"molecular_target": "T4, hPAR2 (Biotin) peptide", "assay": "ELISA, hybridoma supernatant on immobilised peptide, binding as fold above control", "experimental": "(§4) Wells were then washed with an automated plate washer (300 μl 1×PBS, 3 times). […] Wells were washed as above. A set of substrate tablets (1×silver, 1×gold) into 20 ml of ddH₂O by shaking vigorously on the thermomixer for 6 mins at room temperature. 50 μl of substrate ([…]™ […] Tablets (Sigma-Aldrich, N2770-50SET)) was added into each well and incubated for 20-25 mins at room temperature. 50 μl of STOP solution (2M Sodium Hydroxide, Solid (NaOH) (Merck, Cas #1310-73-2)) was added into each well to stop the reaction. Absorbance was read at 405 nm immediately after adding STOP solution with the ELISA reader, using the ‘RdrOle4’ software.\n(§5) In order to determine the specificity of the anti-hPAR4 clones to PAR4, ELISA screening was performed as described above."}, "hPAR3 (Biotin) peptide [8]": {"molecular_target": "T5, hPAR3 (Biotin) peptide", "assay": "ELISA, hybridoma supernatant on immobilised peptide, binding as fold above control", "experimental": "as §4, §5"}, "hPAR1 (Biotin) peptide [9]": {"molecular_target": "T6, hPAR1 (Biotin) peptide", "assay": "ELISA, hybridoma supernatant on immobilised peptide, binding as fold above control", "experimental": "as §4, §5"}, "hPAR4 (Biotin) peptide [10]": {"molecular_target": "T7, hPAR4 (Biotin) peptide (human, biotin on the C-terminal lysine (SKB))", "T7 construct": "also called hPAR4-biotinylated peptide; biotin-coupled human PAR4 peptide", "T7 peptide": "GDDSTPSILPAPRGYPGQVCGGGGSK", "assay": "SPR Bio-Rad ProteOn XPR36, biotin peptide captured, purified mAb as analyte"}, "hPAR4 (naked) peptide [11]": {"molecular_target": "T3, hPAR4 (naked) peptide", "assay": "SPR Biacore T200, mAb captured by anti-mouse Fc, hPAR4 peptide as analyte", "experimental": "A series S CM5 sensor chip was activated with standard EDC/NHS amine coupling chemistry using the manufacturers recommended protocol with Goat anti-mouse IgG Fc. Anti-hPAR4 mAbs were captured at 1-2 ug/ml for 2 minutes at 10 ul/minute on flow cell 2 (FC2) and flow cell 1 (FC1) was used as a reference channel. […] Blank injections of buffer alone were also performed. All injections were performed in duplicate and in a random order.\n(§6) The kinetics of the binding interaction between the mAbs and hPAR4 was measured using Surface Plasmon Resonance (SPR; Biacore) by two different methods: 1. Anti-mouse Fc mAb capture method and 2. Streptavidin (SA) chip to capture biotinylated peptide. The ka(on) rate and kd(off) rates and KD were measured and fitted to a Langmuir model using the Biacore evaluation software."}, "[12]": {"molecular_target": "T1, human PAR4 on isolated human platelets", "assay": "cell-based or functional assay", "remark": "listed apart in the source"}, "hPAR4 (naked) peptide [13]": {"molecular_target": "T3, hPAR4 (naked) peptide", "assay": "ELISA, purified mAb on hPAR4 peptide"}, "hPAR4 11-20 peptide": {"molecular_target": "T8, hPAR4 11-20 peptide (human)", "T8 construct": "Range counted on the hPAR4 immunising peptide; the C-terminal cysteine was removed, so nine residues are given; also called peptide 11-20", "T8 peptide": "APRGYPGQV", "assay": "ELISA, peptide coated on the plate, purified mAb, background subtracted", "experimental": "as §1"}, "hPAR4 8-15 peptide": {"molecular_target": "T9, hPAR4 8-15 peptide (human)", "T9 construct": "Range counted on the hPAR4 immunising peptide; also called peptide 8-15; core peptide", "T9 peptide": "ILPAPRGY", "assay": "ELISA, peptide coated on the plate, purified mAb, background subtracted", "experimental": "as §1"}, "hPAR4 (Biotin) peptide [14]": {"molecular_target": "T7, hPAR4 (Biotin) peptide", "assay": "SPR Biacore T200, biotin peptide on SA chip, whole mAb as analyte", "experimental": "as §6"}, "hPAR3 (Biotin) peptide [15]": {"molecular_target": "T5, hPAR3 (Biotin) peptide", "assay": "ELISA, hybridoma supernatant"}, "hPAR4 (naked) peptide [16]": {"molecular_target": "T3, hPAR4 (naked) peptide", "assay": "ELISA, hybridoma supernatant"}, "hPAR1 (Biotin) peptide [17]": {"molecular_target": "T6, hPAR1 (Biotin) peptide", "assay": "ELISA, hybridoma supernatant"}}, "data": [{"binder": "B1", "values": [{"measurement": "GMFI at 10 ug/ml over isotype control", "setting": "[1]", "result": 53}, {"measurement": "platelet aggregation, % of control", "setting": "[2]", "result": "< 50 % of control"}, {"measurement": "binding result", "setting": "hPAR4 1-9 peptide", "result": "no binding"}, {"measurement": "EC50 (read off the curve)", "setting": "hPAR4 (naked) peptide [3]", "result": "~0.1", "unit": "µg/mL"}, {"measurement": "binding result", "setting": "hPAR2 (Biotin) peptide [4]", "result": "no binding (tested: 10 ug/ml)"}, {"measurement": "binding result", "setting": "hPAR3 (Biotin) peptide [5]", "result": "no binding (tested: 10 ug/ml)"}, {"measurement": "binding result", "setting": "hPAR1 (Biotin) peptide [6]", "result": "no binding (tested: 10 ug/ml)"}]}, {"binder": "B2", "values": [{"measurement": "binding result", "setting": "hPAR2 (Biotin) peptide [7]", "result": "no binding"}, {"measurement": "binding result", "setting": "hPAR3 (Biotin) peptide [8]", "result": "no binding"}, {"measurement": "binding result", "setting": "hPAR1 (Biotin) peptide [9]", "result": "no binding"}, {"measurement": "GMFI at 10 ug/ml over isotype control", "setting": "[1]", "result": 39}, {"measurement": "Kd", "setting": "hPAR4 (Biotin) peptide [10]", "result": "~400", "unit": "pM"}, {"measurement": "Kd", "setting": "hPAR4 (naked) peptide [11]", "result": 14800, "unit": "pM"}, {"measurement": "koff", "setting": "hPAR4 (naked) peptide [11]", "result": 0.00487, "unit": "s⁻¹"}, {"measurement": "kon", "setting": "hPAR4 (naked) peptide [11]", "result": 330000, "unit": "M⁻¹ s⁻¹"}, {"measurement": "IC50 (ug/ml) for inhibition of platelet aggregation, 0.1 U/ml thrombin", "setting": "[12]", "result": 1.6, "unit": "µg/mL"}, {"measurement": "ELISA Pos:Neg ratio", "setting": "hPAR4 (naked) peptide [13]", "result": 13.9, "unit": "ratio"}, {"measurement": "binding result", "setting": "hPAR4 11-20 peptide", "result": "no binding"}, {"measurement": "binding result", "setting": "hPAR4 1-9 peptide", "result": "no binding"}, {"measurement": "binding result", "setting": "hPAR4 8-15 peptide", "result": "binds"}, {"measurement": "Kd", "setting": "hPAR4 (Biotin) peptide [14]", "result": 320, "unit": "pM"}, {"measurement": "koff", "setting": "hPAR4 (Biotin) peptide [14]", "result": 0.000417, "unit": "s⁻¹"}, {"measurement": "kon", "setting": "hPAR4 (Biotin) peptide [14]", "result": "1.32e+06", "unit": "M⁻¹ s⁻¹"}, {"measurement": "binding to PAR3 ratio", "setting": "hPAR3 (Biotin) peptide [15]", "result": 1.1, "unit": "ratio"}, {"measurement": "binding to PAR4 ratio", "setting": "hPAR4 (naked) peptide [16]", "result": 15.2, "unit": "ratio"}, {"measurement": "binding to PAR1 ratio", "setting": "hPAR1 (Biotin) peptide [17]", "result": 1, "unit": "ratio"}]}]}
